Reference: patent US20200109196A1 (MOGAM INSTITUTE FOR BIOMEDICAL RESEARCH, published 2020)
Where a chain is given by its changes, count along the chain named.

T1: CEACAM3 expressed on the surface of HEK293 cells (human, UniProt P40198 35-252)
T1 construct: whole, on cells; GFP-tagged clone; also called CEACAM3-GFP
T1 sequence (looked up): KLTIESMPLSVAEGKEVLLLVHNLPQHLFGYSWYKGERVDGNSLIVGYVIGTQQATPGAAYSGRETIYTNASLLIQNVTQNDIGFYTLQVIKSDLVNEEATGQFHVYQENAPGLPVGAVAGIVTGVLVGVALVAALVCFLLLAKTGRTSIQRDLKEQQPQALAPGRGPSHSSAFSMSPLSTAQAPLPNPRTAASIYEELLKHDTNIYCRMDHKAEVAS

T2: CEACAM5 expressed on the surface of HEK293 cells (human, UniProt P06731 35-685)
T2 construct: whole, on cells; GFP-tagged clone; also called CEACAM5-GFP
T2 sequence (looked up): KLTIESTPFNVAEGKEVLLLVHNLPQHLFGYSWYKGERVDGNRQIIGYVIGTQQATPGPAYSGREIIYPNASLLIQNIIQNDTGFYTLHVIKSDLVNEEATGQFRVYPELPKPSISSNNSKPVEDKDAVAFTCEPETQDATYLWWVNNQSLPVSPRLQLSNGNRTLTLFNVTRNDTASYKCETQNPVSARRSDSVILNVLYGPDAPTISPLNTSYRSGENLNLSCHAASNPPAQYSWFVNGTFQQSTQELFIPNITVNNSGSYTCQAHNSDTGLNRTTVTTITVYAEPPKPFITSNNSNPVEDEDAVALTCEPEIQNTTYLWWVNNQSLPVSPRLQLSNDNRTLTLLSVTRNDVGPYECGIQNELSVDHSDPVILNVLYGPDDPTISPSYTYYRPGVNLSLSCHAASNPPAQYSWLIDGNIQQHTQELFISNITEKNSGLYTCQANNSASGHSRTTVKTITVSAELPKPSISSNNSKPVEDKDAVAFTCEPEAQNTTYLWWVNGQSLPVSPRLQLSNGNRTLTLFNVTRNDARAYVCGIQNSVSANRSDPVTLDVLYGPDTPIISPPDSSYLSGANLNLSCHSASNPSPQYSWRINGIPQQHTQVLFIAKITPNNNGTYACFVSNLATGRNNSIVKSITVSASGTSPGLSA

T3: CEACAM6 expressed on the surface of HEK293 cells (human, UniProt P40199 35-320)
T3 construct: whole, on cells; GFP-tagged clone; also called CEACAM6-GFP
T3 sequence (looked up): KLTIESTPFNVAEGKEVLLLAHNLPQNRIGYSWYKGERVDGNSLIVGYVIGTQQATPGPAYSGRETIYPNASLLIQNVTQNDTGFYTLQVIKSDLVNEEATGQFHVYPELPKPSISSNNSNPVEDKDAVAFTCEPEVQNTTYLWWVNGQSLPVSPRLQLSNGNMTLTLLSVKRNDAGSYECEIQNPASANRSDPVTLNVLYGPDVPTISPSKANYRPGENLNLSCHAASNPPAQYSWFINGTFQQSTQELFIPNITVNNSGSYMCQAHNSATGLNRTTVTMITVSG

T4: CEACAM8 expressed on the surface of HEK293 cells (human, UniProt P31997 35-320)
T4 construct: whole, on cells
T4 sequence (looked up): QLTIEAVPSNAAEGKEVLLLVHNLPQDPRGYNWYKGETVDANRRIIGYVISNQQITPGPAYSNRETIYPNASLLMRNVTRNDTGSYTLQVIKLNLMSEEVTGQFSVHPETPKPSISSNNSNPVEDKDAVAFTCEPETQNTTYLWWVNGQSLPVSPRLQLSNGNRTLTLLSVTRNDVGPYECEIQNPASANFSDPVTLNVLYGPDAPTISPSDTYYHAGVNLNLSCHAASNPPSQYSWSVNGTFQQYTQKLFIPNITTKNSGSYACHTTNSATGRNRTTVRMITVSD

B1: 4R26 (antibody, human IgG4 S228P, lambda, V domains shown)
VH: EVQLLESGGGLVQPGGSLRLSCAASGFTFSNYAMSWVRQAPGKGLEWVSVISHGGGSIYYADSVKGRLTISRDNSKNTLYLQMNSLRAEDTAVYYCARDPTKGYAPTFDYWGQGTLVTVSS
VL: QSVLTQPPSASGTPGQRVTISCSGSSSNIGNNYVSWYQQLPGTAPKLLIYADSKRLSGVPDRFSGSKSGTSASLAISGLRSEDEADYYCGAWDGRLNGYVFGGGTKLTVLG
notes: also called C25-derived clone 4R26
B2: 4R9 (antibody, human IgG4 S228P, lambda, V domains shown)
VH: B1 VH
VL: B1 VL with K54R, L56P, G94L, R95S
notes: also called C25-derived clone 4R9
B3: 4R9_H4-n20 (antibody, human IgG4 S228P, lambda, V domains shown)
VH: B1 VH with T28N
VL: B1 VL with K54R, L56P, G94L, R95S
notes: also called C25-derived clone 4R9_H4-n20
B4: 4R9_H2-2 (antibody, human IgG4 S228P, lambda, V domains shown)
VH: B1 VH with T107L
VL: B1 VL with K54R, L56P, G94L, R95S
notes: also called C25-derived clone 4R9_H2-2

molecular target: T1, CEACAM3 expressed on the surface of …; test: flow cytometry on transfected HEK293 cells (GFP+ gate), PE goat anti-huIgG4 [b]
Procedure: (§1) HEK293 cells were added with 10 μg of each pEF1α-AcGFP-N1 vector (Clontech, Cat. No. 631973) as a control vector, CEACAM1, CEACAM3, CEACAM5, CEACAM6 and CEACAM8 plasmid vectors, followed by transfection under the condition of pulse voltage 1,100 V, pulse width 20 ms and pulse number 2. After 48 hours of transfection, GFP expression was confirmed by fluorescence microscopy. The cells were detached by treatment with 1 ml of TrypLE Express Solution (ThermoFisher Scientific; Cat. No. 12605010), resuspended in 9 ml of DMEM (Gibco, Cat. No. 11995-065) supplemented with 10% (v/v) FBS, and centrifuged at 1,200 rpm for 5 minutes, to remove the resulting supernatant.
(§2) After washing once with PBS, the cells were resuspended in a FACS buffer to obtain a concentration of 5×10⁵ cells/100 μl. Human Fc Block solution was added to the samples at 1 μl/sample, which were incubated at 4° C. for 10 minutes. The cells were treated with hulgG4 or one of the anti-CEACAM1 clones listed at 1 μg/5×10⁵ cells, which were incubated at 4° C. for 10 minutes. After washing with FACS buffer, the PE-labeled goat-anti-huIgG4 antibodies were diluted at a ratio of 1:200 in a FACS buffer, and added to the samples at 100 μl/sample, which were incubated at 4° C. for 30 minutes. The samples were filled with a FACS buffer up to 200 μl, and then centrifuged at 1,200 rpm for 5 minutes, to remove the resulting supernatant. The fixation buffer (300 μl) was added to resuspend the cells. The cells expressing GFP were selected in the FACS LSR-Fortessa device, and the expression of CEACAM members were evaluated respectively using the antibody specific to each CEACAM member (Table 3). Also, the binding of anti-CEACAM1 antibodies was evaluated by PE fluorescence channel and analyzed using the FlowJo software.

Binding result, no binding:
B1
B2
B3
B4

molecular target: T2, CEACAM5 expressed on the surface of …; test: as above
Procedure: as §1, §2

Binding result, no binding:
B1
B2
B3
B4

molecular target: T3, CEACAM6 expressed on the surface of …; test: as above
Procedure: as §1, §2

Binding result, no binding:
B1
B2
B3
B4

molecular target: T4, CEACAM8 expressed on the surface of …; test: as above
Procedure: as §1, §2

Binding result, no binding:
B1
B2
B3
B4
